From publication PMC5121064

Target: Sec14/PH module of NF1, NanoBRET construct
Experiment: FRET or BRET

Sequence of Sec14/PH module of NF1, NanoBRET construct (P21359 2-2839): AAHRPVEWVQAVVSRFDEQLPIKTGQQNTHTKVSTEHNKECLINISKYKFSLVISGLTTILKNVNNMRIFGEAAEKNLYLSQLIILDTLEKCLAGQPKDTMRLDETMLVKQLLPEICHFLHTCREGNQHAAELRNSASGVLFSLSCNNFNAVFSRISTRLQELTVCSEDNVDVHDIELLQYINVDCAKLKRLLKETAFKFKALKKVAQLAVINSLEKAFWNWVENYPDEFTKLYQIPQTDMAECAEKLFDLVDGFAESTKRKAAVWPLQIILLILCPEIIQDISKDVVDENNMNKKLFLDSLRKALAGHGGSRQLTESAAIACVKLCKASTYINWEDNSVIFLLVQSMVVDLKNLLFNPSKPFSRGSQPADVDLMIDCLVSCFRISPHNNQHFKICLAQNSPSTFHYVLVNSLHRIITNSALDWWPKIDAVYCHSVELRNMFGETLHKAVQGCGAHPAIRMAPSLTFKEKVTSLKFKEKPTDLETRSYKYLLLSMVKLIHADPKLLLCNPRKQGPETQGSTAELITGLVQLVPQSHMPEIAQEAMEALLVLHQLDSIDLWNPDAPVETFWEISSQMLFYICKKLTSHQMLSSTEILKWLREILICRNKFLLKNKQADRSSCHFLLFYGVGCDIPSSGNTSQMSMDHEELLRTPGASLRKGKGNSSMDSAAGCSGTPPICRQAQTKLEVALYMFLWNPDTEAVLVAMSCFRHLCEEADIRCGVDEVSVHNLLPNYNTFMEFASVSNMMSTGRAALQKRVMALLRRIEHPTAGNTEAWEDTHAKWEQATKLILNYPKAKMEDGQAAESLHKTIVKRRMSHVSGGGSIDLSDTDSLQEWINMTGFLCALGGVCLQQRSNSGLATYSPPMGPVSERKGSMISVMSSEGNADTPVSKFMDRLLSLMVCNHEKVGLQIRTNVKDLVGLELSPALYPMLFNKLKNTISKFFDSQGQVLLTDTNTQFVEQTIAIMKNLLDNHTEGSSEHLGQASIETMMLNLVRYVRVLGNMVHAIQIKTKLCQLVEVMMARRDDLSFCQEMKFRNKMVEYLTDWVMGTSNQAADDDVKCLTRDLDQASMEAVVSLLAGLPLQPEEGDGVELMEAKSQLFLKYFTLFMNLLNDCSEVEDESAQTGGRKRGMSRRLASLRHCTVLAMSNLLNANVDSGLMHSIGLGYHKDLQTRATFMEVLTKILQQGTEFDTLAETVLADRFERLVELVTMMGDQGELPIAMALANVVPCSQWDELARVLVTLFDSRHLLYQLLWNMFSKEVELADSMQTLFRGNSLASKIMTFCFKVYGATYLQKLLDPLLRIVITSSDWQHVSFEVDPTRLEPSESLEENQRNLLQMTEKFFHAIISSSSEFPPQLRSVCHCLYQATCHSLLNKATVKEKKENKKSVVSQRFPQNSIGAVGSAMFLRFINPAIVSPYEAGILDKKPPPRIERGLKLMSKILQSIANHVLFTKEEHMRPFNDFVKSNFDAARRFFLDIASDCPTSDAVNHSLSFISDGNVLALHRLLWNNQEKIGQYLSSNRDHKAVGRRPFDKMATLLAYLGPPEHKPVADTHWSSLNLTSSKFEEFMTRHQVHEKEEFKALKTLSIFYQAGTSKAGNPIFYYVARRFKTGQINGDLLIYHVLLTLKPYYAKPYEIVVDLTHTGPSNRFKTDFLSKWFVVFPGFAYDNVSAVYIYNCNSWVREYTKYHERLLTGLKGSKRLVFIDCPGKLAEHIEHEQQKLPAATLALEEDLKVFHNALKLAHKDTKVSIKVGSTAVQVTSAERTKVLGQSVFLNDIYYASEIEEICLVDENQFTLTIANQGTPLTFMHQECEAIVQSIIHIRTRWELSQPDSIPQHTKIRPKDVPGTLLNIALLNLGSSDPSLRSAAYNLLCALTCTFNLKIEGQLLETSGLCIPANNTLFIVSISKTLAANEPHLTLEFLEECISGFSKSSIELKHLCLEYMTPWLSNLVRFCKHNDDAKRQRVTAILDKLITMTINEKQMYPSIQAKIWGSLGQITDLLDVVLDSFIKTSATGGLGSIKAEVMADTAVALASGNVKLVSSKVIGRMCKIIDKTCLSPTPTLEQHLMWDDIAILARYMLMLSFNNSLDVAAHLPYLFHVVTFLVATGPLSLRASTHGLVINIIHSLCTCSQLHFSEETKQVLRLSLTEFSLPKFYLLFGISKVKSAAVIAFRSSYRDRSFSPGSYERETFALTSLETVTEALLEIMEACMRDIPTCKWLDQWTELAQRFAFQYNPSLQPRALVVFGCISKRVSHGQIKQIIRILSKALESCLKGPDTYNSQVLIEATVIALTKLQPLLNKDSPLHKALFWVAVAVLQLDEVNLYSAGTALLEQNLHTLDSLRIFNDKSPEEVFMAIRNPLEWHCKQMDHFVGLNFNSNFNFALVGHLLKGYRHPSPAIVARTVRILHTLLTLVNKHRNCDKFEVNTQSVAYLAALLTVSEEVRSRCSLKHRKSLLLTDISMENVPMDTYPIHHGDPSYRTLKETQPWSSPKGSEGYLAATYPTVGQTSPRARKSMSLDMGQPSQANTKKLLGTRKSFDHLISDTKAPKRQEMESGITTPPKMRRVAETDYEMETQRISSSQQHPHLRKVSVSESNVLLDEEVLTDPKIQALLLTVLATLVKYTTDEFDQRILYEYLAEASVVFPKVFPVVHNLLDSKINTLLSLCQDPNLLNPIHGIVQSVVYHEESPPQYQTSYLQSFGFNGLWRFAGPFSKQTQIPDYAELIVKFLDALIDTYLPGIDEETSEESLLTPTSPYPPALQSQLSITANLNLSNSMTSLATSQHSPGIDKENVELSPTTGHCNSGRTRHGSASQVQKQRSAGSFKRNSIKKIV

## Gβγ, NanoBRET construct (from UniProt P62873 1-340; P59768 1-71) (complex)
  1/τ of the onset of the BRET signal after MOR activation: 0.67 s⁻¹
